Measured values taken from patent publication US20230129812A1, “COMPOSITIONS AND METHODS FOR TREATING PULMONARY HYPERTENSION” (Acceleron Pharma Inc., priority 2020, published 2023).

Experiments:
[1] = In vivo activity of ActRIIA variant with substitution at X17; conditions: substitution of A for K at X17
GDF11 [2] = molecular target: T1, GDF11 (Homo sapiens, UniProt O95390); test: Biacore ligand affinity of ActRIIB-hFc forms, steady-state affinity fit; assay type: binding; conditions: Table 12; Kd by steady-state affinity fit; read-out: GDF11 (Kd e−11)
T1 sequence (O95390 299-407): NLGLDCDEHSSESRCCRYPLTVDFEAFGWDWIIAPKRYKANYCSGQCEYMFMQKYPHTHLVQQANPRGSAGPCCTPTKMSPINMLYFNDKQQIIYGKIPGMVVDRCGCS
Procedure: (§1) Affinities of several ligands for ActRIIB(25-131)-hFc and its full-length counterpart ActRIIB(20-134)-hFc were evaluated in vitro with a Biacore™ instrument, and the results are summarized in Table 8 below. Kd values were obtained by steady-state affinity fit due to very rapid association and dissociation of the complex, which prevented accurate determination of kon and koff. ActRIIB(25-131)-hFc bound, for example, activin A, activin B, and GDF11 with high affinity.
(§2) The affinity of ActRIIB variants and other ActRIIB-hFc proteins for several ligands was evaluated in vitro with a Biacore™ instrument. Kd values were obtained by steady-state affinity fit due to the very rapid association and dissociation of the complex, which prevented accurate determination of kon and koff.

activin A [3] = molecular target: T2, activin A (Homo sapiens, UniProt P08476); test: as above; assay type: binding; conditions: Table 12; Kd by steady-state affinity fit; read-out: Activin A (Kd e−11)
T2 sequence (P08476 311-426): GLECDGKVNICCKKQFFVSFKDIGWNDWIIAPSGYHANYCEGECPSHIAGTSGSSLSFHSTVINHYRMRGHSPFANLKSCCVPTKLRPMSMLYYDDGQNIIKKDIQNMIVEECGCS
Procedure: as §1, §2

activin B [4] = molecular target: T3, activin B (Homo sapiens, UniProt P09529); test: as above; assay type: binding; conditions: Table 12; Kd by steady-state affinity fit; read-out: Activin B (Kd e−11)
T3 sequence (P09529 293-407): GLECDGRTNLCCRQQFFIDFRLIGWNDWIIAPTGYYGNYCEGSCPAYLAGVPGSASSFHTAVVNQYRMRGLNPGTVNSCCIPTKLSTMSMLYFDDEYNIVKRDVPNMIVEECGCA
Procedure: as §1, §2

GDF11 [5] = molecular target: T1, GDF11; test: A-204 reporter gene assay, pGL3(CAGA)12 luciferase; assay type: cell-based; conditions: for inhibition of GDF11 signaling: A-204 reporter gene assay
From the text: (§3) An A-204 reporter gene assay was used to evaluate the effects of ActRIIB-Fc proteins and ActRIIB variant Fc fusion polypeptides on signaling by GDF-11 and activin A. Cell line: human rhabdomyosarcoma (derived from muscle). Reporter vector: pGL3(CAGA)12 (described in Dennler et al, 1998, EMBO 17: 3091-3100). The CAGA12 motif is present in TGF-beta responsive genes (e.g., PAI-1 gene), so this vector is of general use for factors signaling through SMADs.
(§4) Day 1: Split A-204 cells into 48-well plate.
(§5) Day 2: A-204 cells transfected with 10 ug pGL3(CAGA)12 or pGL3(CAGA)12(10 ug)+pRLCMV (1 pg) and Fugene.
(§6) Day 3: Add factors (diluted into medium+0.1% BSA). Inhibitors need to be preincubated with factors for 1 hr before adding to cells. Six hrs later, cells were rinsed with PBS and lysed.
(§7) This is followed by a luciferase assay.
(§8) Activity of ActRIIB-Fc proteins and ActRIIB variant Fc fusion polypeptides was tested in a cell-based assay as described above. Some variants were tested in different C-terminal truncation constructs. As discussed above, truncations of five or fifteen amino acids caused reduction in activity. […]

activin A [6] = molecular target: T2, activin A; test: A-204 reporter gene assay, pGL3(CAGA)12 luciferase; assay type: cell-based; conditions: for inhibition of activin A signaling: A-204 reporter gene assay
From the text: as §3, §4, §5, §6, §7, §8

GDF8 [7] = molecular target: T4, GDF8 (Homo sapiens, UniProt O14793); test: A-204 reporter gene assay, pGL3(CAGA)12 luciferase; assay type: cell-based
T4 sequence (O14793 267-375): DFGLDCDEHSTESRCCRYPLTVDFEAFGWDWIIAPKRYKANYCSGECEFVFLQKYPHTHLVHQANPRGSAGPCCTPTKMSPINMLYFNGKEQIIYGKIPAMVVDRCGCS
From the text: as §3, §4, §5, §6, §7
As described below, ActRIIB variants were also tested in this assay.
(§9) In addition, an A-204 Reporter Gene Assay was used to evaluate the effects of ALK4-Fc:ActRIIB-Fc heterodimer and ActRIIB-Fc:ActRIIB-Fc homodimer on signaling by activin A, activin B, GDF11, GDF8, BMP10, and BMP9. Cell line: Human Rhabdomyosarcoma (derived from muscle). Reporter vector: pGL3(CAGA)12 (as described in Dennler et al, 1998, EMBO 17: 3091-3100). The CAGA12 motif is present in TGFβ responsive genes (PAI-1 gene), so this vector is of general use for factors signaling through Smads. An exemplary A-204 Reporter Gene Assay is outlined below. • Day 1: Split A-204 cells into 48-well plate. • Day 2: A-204 cells transfected with 10 ug pGL3(CAGA)12 or pGL3(CAGA)12(10 ug)+pRLCMV (1 ug) and Fugene. • Day 3: Add factors (diluted into medium+0.1% BSA). Inhibitors need to be pre-incubated with Factors for about one hr before adding to cells. About six hrs later, cells are rinsed with PBS and then lysed.
(§10) Following the above steps, a Luciferase assay was performed.

GDF11 [8] = molecular target: T1, GDF11; test: Biacore assay, ActRIIB-Fc captured with anti-hFc antibody, ligand injected (Example 8); assay type: binding; conditions: GDF11; Table 10
Procedure: (§11) Binding of certain ActRIIB-Fc proteins and ActRIIB variant Fc fusion polypeptides to ligands was tested in a Biacore™ assay.
(§12) The ActRIIB-Fc variants or wild-type protein were captured onto the system using an anti-hFc antibody. Ligands were injected and flowed over the captured receptor proteins.

GDF8 [9] = molecular target: T4, GDF8; test: as above; assay type: binding; conditions: GDF8; Table 10
Procedure: as §11, §12

activin A [10] = molecular target: T2, activin A; test: as above; assay type: binding; conditions: Activin A; Table 10
Procedure: as §11, §12

activin B [11] = molecular target: T3, activin B; test: A-204 Reporter Gene Assay (Example 13); assay type: cell-based
From the text: as §9, §10

BMP10 = molecular target: T5, BMP10 (Homo sapiens, UniProt O95393); test: Biacore ligand binding profile, ALK4-Fc:ActRIIB-Fc heterodimer vs homodimers, anti-Fc capture (Example 13, Table 13); conditions: ligand BMP10, Table 13
T5 sequence (O95393 317-424): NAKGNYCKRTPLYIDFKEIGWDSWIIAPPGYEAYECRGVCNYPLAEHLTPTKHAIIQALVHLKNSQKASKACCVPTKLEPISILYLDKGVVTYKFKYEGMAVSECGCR
Procedure: (§13) A Biacore™-based binding assay was used to compare ligand binding selectivity of the ALK4-Fc:ActRIIB-Fc heterodimeric complex described above with that of ActRIIB-Fc and ALK4-Fc homodimer complexes. The ALK4-Fc:ActRIeB-Fc heterodimer, […], and ALK4-Fc homodimer were independently captured onto the system using an anti-Fc antibody. Ligands were injected and allowed to flow over the captured receptor protein. Results are summarized in Table 13 below, in which ligand off-rates (kd) most indicative of effective polypeptides are denoted in bold.

BMP6 = molecular target: T6, BMP6 (Homo sapiens, UniProt P22004); test: as above
T6 sequence (P22004 375-513): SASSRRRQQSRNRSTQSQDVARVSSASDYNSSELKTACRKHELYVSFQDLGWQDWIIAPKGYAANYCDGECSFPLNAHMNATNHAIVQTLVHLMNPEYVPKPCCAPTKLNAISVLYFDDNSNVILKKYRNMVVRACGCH
Procedure: as §13

BMP9 = molecular target: T7, BMP9 (Homo sapiens, UniProt Q9UK05); test: as above
T7 sequence (Q9UK05 320-429): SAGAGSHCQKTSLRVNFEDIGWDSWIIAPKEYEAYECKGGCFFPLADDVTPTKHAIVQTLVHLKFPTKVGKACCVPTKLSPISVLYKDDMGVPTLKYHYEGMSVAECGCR
Procedure: as §13

GDF11 [12] = molecular target: T1, GDF11; test: as above
Procedure: as §13

GDF3 = molecular target: T8, GDF3 (Homo sapiens, UniProt Q9NR23); test: as above; conditions: ligand GDF3, Table 13
T8 sequence (Q9NR23 251-364): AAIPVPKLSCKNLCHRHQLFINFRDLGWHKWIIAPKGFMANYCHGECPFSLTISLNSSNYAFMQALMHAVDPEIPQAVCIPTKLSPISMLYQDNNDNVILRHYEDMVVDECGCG
Procedure: as §13

GDF8 [13] = molecular target: T4, GDF8; test: as above
Procedure: as §13

activin A [14] = molecular target: T2, activin A; test: as above
Procedure: as §13

activin B [15] = molecular target: T3, activin B; test: as above; conditions: ligand Activin B, Table 13
Procedure: as §13

[16] = Table 9, cell-based A-204 assay

B1: SEQ ID NO: 283: ActRIIA variant with alanine (A) substituted for lysine (K) at X17 (protein)
chain: GAILGRSETQECLFYNANWELERTNQTGVERCEGEKDKRLHCYATWRNISGSIEIVAKGCWLDDFNCYDRTDCVETEENPQVYFCCCEGNMCNEKFSYFPEMEVTQPTS
Question: Which activity in vivo [1] does the source give for B1 here?
Answer: reduced activity in vivo

B2: ActRIIB(20-134)-hFc: extracellular domain of human ActRIIB (residues 20-134, R64) fused to a human Fc domain with a minimal linker (protein)
chain: GRGEAETRECIYYNANWELERTNQSGLERCEGEQDKRLHCYASWRNSSGTIELVKKGCWLDDFNCYDRQECVATEENPQVYFCCCEGNFCNERFTHLPEAGGPEVTYEPPPTAPTGGGTHTCPPCPAPELLGGPSVFLFPPKPKDTLMISRTPEVTCVVVDVSHEDPEVKFNWYVDGVEVHNAKTKPREEQYNSTYRVVSVLTVLHQDWLNGKEYKCKVSNKALPVPIEKTISKAKGQPREPQVYTLPPSREEMTKNQVSLTCLVKGFYPSDIAVEWESNGQPENNYKTTPPVLDSDGSFFLYSKLTVDKSRWQQGNVFSCSVMHEALHNHYTQKSLSLSPGK
Question: With B2 as the molecule, how does the Kd (GDF11 [2]) read?
Answer: 36 pM

Question: And the Kd (activin A [3])?
Answer: 16 pM

Question: And the Kd (activin B [4])?
Answer: 12 pM

Question: What about the “inhibition of GDF11 signaling” value (GDF11 [5]) of the same molecule?
Answer: potent inhibitor

Question: And the “GDF11 Inhibition Activity” value (GDF11 [5]; [16])?
Answer: +++ (Good (wild-type) activity (roughly 1 × 10^−8 KI))

Question: What about the “inhibition of activin A signaling” value (activin A [6]) of the same molecule?
Answer: potent inhibitor

Question: What about the “Activin Inhibition Activity” value (activin A [6]; [16]) of the same molecule?
Answer: +++ (Good (wild-type) activity (roughly 1 × 10^−8 KI))

Question: And the “inhibition of GDF8 signaling” value (GDF8 [7])?
Answer: potent inhibitor

Question: What about the “Koff” value (GDF11 [8]) of the same molecule?
Answer: 0.000113 s⁻¹

Question: What about the “Koff” value (GDF8 [9]) of the same molecule?
Answer: 3.45e-05 s⁻¹

Question: What about the “Koff” value (activin A [10]) of the same molecule?
Answer: 0.000159 s⁻¹

B3: ActRIIB-Fc homodimer: ActRIIB-Fc homodimer complex used as comparator in Example 13 (protein)
chain: B2 chain
Question: Which “inhibition of GDF11 signaling” value (GDF11 [5]) does the source give for B3 here?
Answer: potent inhibitors

Question: And the “inhibition of activin A signaling” value (activin A [6])?
Answer: potent inhibitors

Question: What about the “inhibition of GDF8 signaling” value (GDF8 [7]) of the same molecule?
Answer: potent inhibitors

Question: And the “inhibition of activin B signaling” value (activin B [11])?
Answer: potent inhibitors

Question: What about the ka (BMP10) of the same molecule?
Answer: 2.3 × 10^7 1/MS

Question: And the kd (BMP10)?
Answer: 0.00026 s⁻¹

Question: What about the “BMP6 binding” value (BMP6; Example 13) of the same molecule?
Answer: intermediate-level binding

Question: And the ka (BMP6; ligand BMP6, Table 13)?
Answer: 3.2 × 10^7 1/MS

Question: What about the kd (BMP6; ligand BMP6, Table 13) of the same molecule?
Answer: 0.0068 s⁻¹

Question: And the “BMP9 binding” value (BMP9; Example 13)?
Answer: binds strongly

Question: And the ka (BMP9; ligand BMP9, Table 13)?
Answer: 1.4 × 10^7 1/MS

Question: What about the kd (BMP9; ligand BMP9, Table 13) of the same molecule?
Answer: 0.0011 s⁻¹

Question: And the “GDF11 binding” value (GDF11 [12]; Example 13)?
Answer: strong binding

Question: What about the ka (GDF11 [12]; ligand GDF11, Table 13) of the same molecule?
Answer: 5.0 × 10^7 1/MS

Question: What about the kd (GDF11 [12]; ligand GDF11, Table 13) of the same molecule?
Answer: 0.00011 s⁻¹

Question: And the ka (GDF3)?
Answer: 1.4 × 10^6 1/MS

Question: What about the kd (GDF3) of the same molecule?
Answer: 0.0022 s⁻¹

Question: What about the “GDF8 binding” value (GDF8 [13]; Example 13) of the same molecule?
Answer: strong binding

Question: What about the ka (GDF8 [13]; ligand GDF8, Table 13) of the same molecule?
Answer: 8.3 × 10^5 1/MS

Question: And the kd (GDF8 [13]; ligand GDF8, Table 13)?
Answer: 0.00023 s⁻¹

Question: And the “activin A binding” value (activin A [14]; Example 13)?
Answer: strong binding

Question: What about the ka (activin A [14]; ligand Activin A, Table 13) of the same molecule?
Answer: 1.2 × 10^7 1/MS

Question: What about the kd (activin A [14]; ligand Activin A, Table 13) of the same molecule?
Answer: 0.00023 s⁻¹

Question: And the ka (activin B [15])?
Answer: 5.1 × 10^6 1/MS

Question: What about the kd (activin B [15]) of the same molecule?
Answer: 0.0001 s⁻¹
